The source of these data is patent US8962263B2, “Methods and compositions for detecting the activation state of multiple proteins in single cells” (The Board of Trustees of the Leland Stanford Junior …, priority 2001, dated 2015).

One test concerns NIH3T3. As to the kind of experiment: staurosporine induced apoptosis in ICAM-2 transduced NIH3T3 (annexin-V binding, BrdU TUNEL). The class given is cell-based, murine. As for the experimental part: A) Pharmacological inhibitors of PI3K abrogate ICAM-2's anti-apoptotic. ICAM-2, or vector transduced BaF3, cells were treated with staurosporine (1, μM) with (unfilled) or without (filled) the addition of 100, nM wortmannin for 24, hours (left bar graph). Apoptosis was determined by nuclear staining and fluorescence microscopy (left bar graph) and by annexin-V binding assay (right bar graph). The proportion of apoptotic cells in each culture without staurosporine was 8%+/−2. The percentage of apoptotic cells is expressed as the mean (bar)+SD of triplicate cultures. ICAM-2, 1CAM2-AC, or vector transduced NIH3T3, were treated with staurosporine ([…]) in the presence or absence of 10, μM LY294002, for 24, hours (right bar graph). DMSO vehicle served as negative control. The percentage of apoptotic cells is expressed as the mean (bar)+/−SD of triplicate cultures. B) Confocal images of PI3K and AKT localization in ICAM-2, (top) or vector control cells (bottom). C) Confocal images of ezrin and the p85, subunit of PI3K (green) localization in ICAM-2, (top) or vector control cells (bottom).
A) The anti-apoptotic effect of ICAM-2, is both wortmannin and LY294002, sensitive. ICAM-2, or vector transduced BaF3, cells were treated with staurosporine (1, μM) with (unfilled) or without (filled) the addition of 100, nM wortmannin for 24 hours. Apoptosis was determined by nuclear staining and fluorescence microscopy (left bar graph) and by annexin-V binding assay (right bar graph). The proportion of apoptotic cells in each culture without staurosporine was 8%±2. The percentage of apoptotic cells is expressed as the mean (bar)±SD of triplicate cultures. ICAM-2, ICAM2-ΔC, or vector transduced NIH3T3, were treated with staurosporine (1, μM) in the presence or absence of 10, μM LY294002, for 24, hours. DMSO vehicle served as negative control. The percentage of apoptotic cells is expressed as the mean (bar)±SD of triplicate cultures. B) ICAM-2, expressing NIH3T3, cells are sensitive to apoptosis in the presence of PI3K inhibitor LY294002. BrdU TUNEL assay was performed in staurosporine (1, μM) or LY294002, (10, μM) treated ICAM-2, ICAM2-ΔC, and control vector transduced NIH3T3, cells. The percentage of apoptotic cells is expressed as the mean (bar)±SD of triplicate cultures.
Apoptosis was determined either by counting pyknotic nuclei, annexin-V binding by flow cytometry, or TUNEL BrdU staining by flow cytometry as indicated. Apoptosis was induced either by staurosporine (1 μm), treatment with anti-mouse Fas (5 μq/ml Santa Cruz Biotechnology (SCB), […] Fas (5 μg/ml Jo2 Biomed) or anti-human Fas (10 ng/ml CH11 Kamiya Biomedical) as indicated in appropriate experiment, IL-3 withdrawal-(24 hrs) or as indicated. For pyknolic nuclei count, NIH3T3 cells were grown on glass coverslips and assayed for apoptosis. Suspension cells were analyzed by nuclear staining with 25 μM acridine orange/25 μm ethidium bromide or 5 μg/ml Hoechst 33342 (Molecular Probes, Eugene, Oreg.). Apoptosis was identified by the presence of characteristic pyknotic nuclei as described (Jacobson and Raff, 1995). At least 5 individual fields were photographed and counted using a Zeiss axioscope fluorescence microscope. For the survival assay 10^6 NIH3T3 cells were plated in 10 cm dishes and incubated overnight at 37° C. The cells were treated with 1 μM staurosporine for 24 hours. The cells were washed and cultured for 24 hours in complete medium. The cells were trypsinized and viable cells counted following trypan blue staining. Untreated cells were counted at the time of treatment. % survival represents (number of viable cells post-treatment)/(number of viable cells pretreatment). FACS based annexin-V-FITC/PI staining was done as described (PharMingen). TUNEL assay was performed as described by manufacturer of Apoptosis BrdU kit (Promega). […]

Test [1] has as its system CD56 CD8 cytotoxic lymphocyte subsets. Description: intracellular perforin and granzyme-A in CD56CD8 subsets of human PBMC by flow cytometry. Format: cell-based. As for the experimental part:
IL-2, activated PBMC (shown in A-1 and A-3) were mock-treated (IgG) (A-2) , ICAM-1, (A2), ICAM-2, (A4), or ICAM-3, (A4) treated (10, μg/ml of FC fusion protein) for 12 hrs prior to incubation with target HL60, cells at a 50:1, E:T ratio for 4, hrs. Cells were then prepared for flow cytometry with CD8-CY5PE, CD56-PE surface stains, and perforin-CY5, and granzyme-A-FITC intracellular stains. Cells were gated for CD56^+CD8^low, CD56^+CD8^med, CD56^+, CD8^high, CD56^−, CD8^−, , CD56^−-CD8^high, populations as shown in A-1 and A-3 and population frequencies within appropriate gate. […] Results are representative of 3 independent experiments and were similar at 25:1 and 12.5:1 E:T ratios (data not shown). Manual calibration was performed. […] Perforin percentage was calculated from the following equation where MFI equals mean fluorescent intensity: 100×[(MFIexperimental−MFIisotype mAb)/(MFIcontrol−MFlisotype mAb)] Unstimulated cells were used as control.
(§1) Target cell lysis was measured by flow cytoemtric based detection of CFSE labeled HL60 cells. HL60 cells were labeled with 1 μg of CFSE (30 min, 37° C.). Targets were washed twice and mock treated, IL-2 activated (100 U/ml), CD3/CD28 activated (1 μg/ml), or treated with ICAM2 beads or soluble ICAM-1, -2, or 3 (10 μg/ml, 30 min, 37° C.) before plating at 10^4 target cells/well of a 96-well round bottom plate. CTLs were added at 50:1, 25:1, and 12.5:1 E:T ratio, and incubated at 37° C. for 4 hrs. Cells were then processed for multiparameter flow cytometry and intracellular perforin stain. Percent specific lysis was calculated by the following equation: % specific lysis=100-100×(experimental HL60 count/total control HL60 count). HL60 counts were detectable by the CFSE fluorescence. Percent perforin was calculated by the following equation: % perforin=100×[(experimental perforin MFI−isotype mAb MFI)/(total perforin MFI−isotype mAb MFI)]. MFI refers to mean fluorescent intensity of flow cytoemtric based intracellular detection. Cell conjugates were determined by flow cytometry as described (Morgan et al., 2001). Chemical inhibition was done at 10 μM of indicated compound (30 min, 37° C.) prior to stimulation as indicated. All experiments were performed in triplicate.
(In flow cytometry, cells or beads pass a laser one at a time.)

A further test concerns HL60 cells. As to the kind of experiment: FACS based effector-target killing assay, human PBMC against CFSE labeled HL60 cells. Particulars: 10 μg/ml, 50:1 E:T ratio, 4 hrs. Format: cell-based. As for the experimental part:
A) PBMC were either treated with ICAM-2, (10 μg/ml) in the presence of IL-2, for 12, hr and then incubated with CFSE labeled target HL60, cells at a 50:1, E:T ratio for 4, hrs. Remaining HL60, cells were quantified by flow cytometry. B) PBMC were treated with IL-2, (100, U/ml, 12, hrs) and treated with ICAM-1,-2, or 3, FC proteins (10, μg/ml) and used in a cytotoxicity assay as described above. Results are representative of 4, independent experiments.
as §1

For `CN(C)CCCn1cc(C2=C(c3c[nH]c4ccccc34)C(=O)NC2=O)c2ccccc21` [bisindolymaleimide I], in the test with NIH3T3 (PKC isozyme inhibitors, system not specified), the “ICAM-2 induced survival signal” value is on record as “did not abrogate”. The “effect on ICAM-2 anti-apoptotic effect, other kinase inhibitors” value with NIH3T3 (cell type not stated, data not shown) is given as “not abrogated”.

B1: ICAM-2: biochemically purified soluble human ICAM-2 protein from retrovirally transduced NIH3T3 cells; ICAM-2-FC fusion also used (protein, UniProt P13598 25-223, looked up)
extracellular domain: KVFEVHVRPKKLAVEPKGSLEVNCSTTCNQPEVGGLETSLDKILLDEQAQWKHYLVSNISHDTVLQCHFTCSGKQESMNSNVSVYQPPRQVILTLQPTLVAVGKSFTIECRVPTVEPLDSLTLFLFRGNETLHYETFGKAAPAPQEATATFNSTADREDGHRNFSCLAVLDLMSRGGNIFHKHSAPKMLEIYEPVSDSQ
modifications: extracellular domain
notes: biochemically purified soluble human ICAM-2 protein from retrovirally transduced NIH3T3 cells; ICAM-2-FC fusion also used
Molecule B1 yielded a granzyme-A negative population in test [1] (CD56+CD8high population) of 58.3%. The “changes in intracellular perforin or granzyme-A” value in test [1] (CD56+CD8low population) is on record as “no significant changes”. Further, in test [1] (CD56+CD8med population), the “frequency of the perforin negative population” value is given as 21.5%. The “target cell lysis of HL60 cells” value in the test on HL60 cells is recorded as “could initiate target cell lysis in the presence of IL-2 but not in the absence of IL-2”.
